Experimental data: patent US20030176334A1 (Scripps Research, published 2003)
Square brackets hold non-standard residues; d marks the D form.

B1: peptide 62411, TRQVVCDLGNPM (peptide)
peptide: TRQVVCDLGNPM
notes: Linear synthetic peptide; also called αv-derived amino acid residues 676-687
B2: peptide 62502, TDVNGDGRHDL (peptide)
peptide: TDVNGDGRHDL
notes: Linear synthetic peptide; also called αIIb-derived amino acid residues 296-306
B3: peptide 62181, cyclo(GrGDFV) (peptide)
peptide: cyclo(G[dR]GDFV)
modifications: also: TFA salt
notes: TFA salt; also called cyclo(-Gly-D-Arg-Gly-Asp-Phe-Val); c-(GrGDFV)
B4: peptide 62880, YTAECKPQVTRGDVF (peptide)
peptide: YTAECKPQVTRGDVF
notes: Linear synthetic peptide; also called VN-derived amino acid residues 35-49
B5: peptide 62503, GVVRNNEALARLS (peptide)
peptide: GVVRNNEALARLS
notes: Linear synthetic peptide; also called αv-derived amino acid residues 655-667
B6: peptide 62185, cyclo(RADfV) (peptide)
peptide: cyclo(RAD[dF]V)
modifications: also: TFA salt
notes: also called cyclo(Arg-Ala-Asp-D-Phe-Val)
B7: peptide 62186, cyclo(RaDFV) (peptide)
peptide: cyclo(R[dA]DFV)
modifications: also: TFA salt
notes: TFA salt; also called cyclo(Arg-D-Ala-Asp-Phe-Val)

Assays:
[1] = biological target: integrin αvβ3 (vitronectin receptor), purified and immobilized (UniProt P06756); assay: solid phase receptor binding assay, iodinated MMP-2 on immobilized αvβ3
[2] = biological target: integrin αIIbβ3, purified and immobilized (UniProt P08514); assay: solid phase receptor binding assay, iodinated MMP-2 on immobilized αIIbβ3
[3] = biological target: T1, integrin αvβ3 (vitronectin receptor), purified and immobilized (UniProt P06756 31-1048; P05106 27-788); assay: competition, vitronectin (VN) binding to immobilized αvβ3; individual assay
T1 construct: Purified integrin coated at 50 ng per well; also called αvβ3 receptor
Method: (§1) Briefly, selected purified integrins were separately immobilized in Titertek microtiter wells at a coating concentration of 50 nanograms (ng) per well. […] After incubation for 18 hours at 4C, nonspecific binding sites on the plate were blocked with 10 milligrams/milliliter (mg/ml) of bovine serum albumin (BSA) in Tris-buffered saline. […] Radiolabeled ligands were used at concentrations of 1 nM and binding was challenged separately with unlabeled synthetic peptides.
(§2) Following a three hour incubation, free ligand was removed by washing and bound ligand was detected by gamma counting.

[4] = biological target: T1, integrin αvβ3 (vitronectin receptor), …; assay: competition, fibrinogen (FG) binding to immobilized αvβ3; individual assay
Method: as §1, §2

[5] = biological target: T2, integrin αIIbβ3, purified and immobilized (UniProt P08514 32-1039; P05106 27-788); assay: competition, vitronectin (VN) binding to immobilized αIIbβ3; individual assay
T2 construct: Purified integrin coated at 50 ng per well; also called α11bβ3
Method: as §1, §2

[6] = biological target: T2, integrin αIIbβ3, purified and …; assay: competition, fibrinogen (FG) binding to immobilized αIIbβ3; individual assay
Method: as §1, §2

[7] = biological target: T2, integrin αIIbβ3, purified and …; assay: competition, 125I-fibrinogen (1 nM) binding to immobilized purified αIIbβ3, gamma counting; mean of duplicates ± SD
Method: as §1, §2

[8] = biological target: T1, integrin αvβ3 (vitronectin receptor), …; assay: competition, 125I-fibrinogen (1 nM) binding to immobilized purified αvβ3, gamma counting; mean of duplicates ± SD
Method: as §1, §2

T1 sequence (P06756 31-1048, form in doubt, chain 1 of 2): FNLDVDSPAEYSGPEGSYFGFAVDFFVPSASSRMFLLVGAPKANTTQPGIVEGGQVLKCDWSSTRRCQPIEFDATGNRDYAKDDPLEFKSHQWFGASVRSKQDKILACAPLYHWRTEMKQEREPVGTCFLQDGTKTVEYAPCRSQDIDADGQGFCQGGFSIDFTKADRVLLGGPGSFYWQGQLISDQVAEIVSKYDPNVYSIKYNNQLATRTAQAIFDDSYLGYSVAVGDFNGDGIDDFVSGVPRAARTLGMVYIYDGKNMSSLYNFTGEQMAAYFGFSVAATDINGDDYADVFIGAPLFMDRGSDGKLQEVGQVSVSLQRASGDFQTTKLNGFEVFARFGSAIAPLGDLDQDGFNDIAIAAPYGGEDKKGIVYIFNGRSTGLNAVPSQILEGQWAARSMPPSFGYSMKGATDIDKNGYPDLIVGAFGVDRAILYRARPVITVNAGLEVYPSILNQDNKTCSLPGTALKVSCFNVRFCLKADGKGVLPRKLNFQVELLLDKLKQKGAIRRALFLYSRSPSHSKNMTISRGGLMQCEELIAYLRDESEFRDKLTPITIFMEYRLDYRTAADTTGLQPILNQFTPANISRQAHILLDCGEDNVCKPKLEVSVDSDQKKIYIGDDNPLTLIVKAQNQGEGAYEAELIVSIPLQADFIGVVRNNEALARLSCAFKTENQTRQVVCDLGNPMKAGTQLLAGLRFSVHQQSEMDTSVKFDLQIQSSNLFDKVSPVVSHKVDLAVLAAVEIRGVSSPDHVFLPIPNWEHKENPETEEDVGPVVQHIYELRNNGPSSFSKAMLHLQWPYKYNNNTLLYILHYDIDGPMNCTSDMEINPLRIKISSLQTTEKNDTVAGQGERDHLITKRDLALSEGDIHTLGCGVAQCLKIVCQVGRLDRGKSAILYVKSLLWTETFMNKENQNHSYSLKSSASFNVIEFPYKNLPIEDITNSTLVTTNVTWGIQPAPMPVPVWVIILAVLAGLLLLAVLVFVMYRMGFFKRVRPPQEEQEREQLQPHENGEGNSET
T1 sequence (P05106 27-788, form in doubt, chain 2 of 2): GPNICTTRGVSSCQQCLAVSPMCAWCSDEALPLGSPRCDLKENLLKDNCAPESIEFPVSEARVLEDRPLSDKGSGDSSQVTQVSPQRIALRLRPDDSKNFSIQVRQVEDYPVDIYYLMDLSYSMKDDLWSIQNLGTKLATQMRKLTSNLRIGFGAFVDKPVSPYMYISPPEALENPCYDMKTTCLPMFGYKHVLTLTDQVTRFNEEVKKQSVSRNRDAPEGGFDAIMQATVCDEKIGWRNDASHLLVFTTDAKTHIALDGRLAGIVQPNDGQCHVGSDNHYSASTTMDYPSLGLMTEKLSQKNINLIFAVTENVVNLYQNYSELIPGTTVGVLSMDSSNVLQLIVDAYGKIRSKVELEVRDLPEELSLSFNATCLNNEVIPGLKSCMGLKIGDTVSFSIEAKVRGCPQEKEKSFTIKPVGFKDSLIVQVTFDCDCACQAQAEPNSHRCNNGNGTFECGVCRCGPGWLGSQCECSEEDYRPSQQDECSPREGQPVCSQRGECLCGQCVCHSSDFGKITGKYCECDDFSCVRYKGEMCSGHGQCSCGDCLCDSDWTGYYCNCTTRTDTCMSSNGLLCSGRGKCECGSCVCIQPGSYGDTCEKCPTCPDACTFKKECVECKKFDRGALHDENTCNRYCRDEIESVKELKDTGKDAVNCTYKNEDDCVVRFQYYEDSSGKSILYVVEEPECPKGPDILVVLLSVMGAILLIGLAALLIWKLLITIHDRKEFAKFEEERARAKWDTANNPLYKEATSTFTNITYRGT
Sequence of integrin αvβ3 (vitronectin receptor), purified and immobilized (UniProt P06756) (P06756 31-1048, form in doubt, chain 1 of 2): as the sequence (P06756 31-1048, form in doubt, chain 1 of 2) above
Sequence of integrin αvβ3 (vitronectin receptor), purified and immobilized (UniProt P06756) (P05106 27-788, form in doubt, chain 2 of 2, further chain): as the sequence (P05106 27-788, form in doubt, chain 2 of 2) above

Row | Molecule | IC50 [3] [µM] | IC50 [4] [µM] | IC50 [5] [µM] | IC50 [7] [µM] | IC50 [8] [µM] | also measured
1 | MMP-2 (matrix metalloproteinase-2) as used in the solid phase receptor binding assays (enzyme) |  |  |  |  |  | bound cpm [1]: 300 cpm; bound cpm [2]: 10 CPM
2 | B1 | > 100 | > 100 | > 100 |  |  | 
3 | B2 | > 100 | > 100 | 5 |  |  | IC50 [6]: 90 µM
4 | cyclo(GRGD[dF]L) (also: TFA salt, TFA salt) [peptide 62179, cyclo(GRGDfL)] |  |  |  | 0.055 | 0.395 | 
5 | B3 |  |  |  | 15 | 1.96 | 
6 | cyclo(ARGD[dF]L) (also: TFA salt, TFA salt) [peptide 62175, cyclo(ARGDfL)] |  |  |  | 0.63 | 1.05 | 
7 | B4 | 0.5 | < 0.1 | 0.98 |  |  | IC50 [6]: 4.2 µM
8 | B5 | > 100 | > 100 | > 100 |  |  | 
9 | B6 |  |  |  | 100 | 0.885 | 
10 | B7 |  |  |  | 100 | 57.5 | 
